assay: soluble on expression in E. coli; label from the status in PepcDB or PDB records

Sequence	soluble on expression in E. coli
SSEAYFPVESGALGPEENFLSLDDILMSQEKLPVRVETPMPRLGAFFLERGAGSEPDHPLPQGTKLELPLWLAKGLFDHKRRILSVELPKMYQEGWRTVFSADANVVDLHKMGPHFYGFGSQLLHFDSPENADISQSLLKTFIGRFRRIMDSSQNSYNEDTSALVARLDETERGLFQIGQRSLNDFQSWEKGQASQITASSLVQNYKKRKFTNMED	soluble
SSPSLLEPLLAMGFPVHTALKALAATGRKTAEEALAWLHDHCNDPSLDDPI	soluble
SSRKSGIGHEASLKRKAEEKLESYRKKIHMKNQAEEKAAEQFRMRLKNKQDEMKLEGDLRRSQRACQQLDVQKNIQVPREAWYWLRLEEETEEDEEEKEQDEDEYKSEDLSVLEKLQILTSYLREEHLYCIWCGTAYEDKEDLSSNCPGPTSADHD	soluble
SSSLKIASTQEARQYFDTDRVVVDAVGSDFTDVGAVIAMDYETDVIDAADATKFGIPVFAVTKDAQAISADELKKIFHIIDLENKFDATVNAREIETAVNNYEDSILPPFFKSLKEYVSRYLIQFDCPGHQGGQYYRKHPAGREFYDFFGETVFRADLCNADVALGDLLIHEGPAVAAEKHAARVYNADKTYFVLGGSSNANNTVTSALVSNGDLVLFDRNNHKSVYNSALAMAGGRPVYLQTNRNPYGFIGGIYDSDFDEKKIRELAAKVDPERAKWKRPFRLAVIQLGTYDGTIYNAHEVVKRIGHLCDYIEFDSAWVGYEQFIPMMRNSSPLLIDDLGPEDPGIIVVQSVHKQQAGFSQTSQIHKKDSHIKGQLRYCDHKHFNNSFNLFMSTSPFYPMYAALDVNAAMQEGEAGRKLWHDLLITTIEARKKLIKAGSMFRPFVPPVVNGKKWEDGDTEDMANNIDYWRFEKGAKWHAYEGYGDNQYYVDPNKFMLTTPGINPETGDYEDFGVPATIVANYLRDHGIIPEKSDLNSILFLMTPAETPAKMNNLITQLLQLQRLIEEDAPLKQVLPSIYAANEERYNGYTIRELCQELHDFYKNNNTFTYQKRLFLREFFPEQGMLPYEARQEFIRNHNKLVPLNKIEGEIALEGALPYPPGVFCVAPGEKWSETAVKYFTILQDGINNFPGFAPEIQGVYFKQEGDKVVAYGEVYDAEVAKNDDRYNN	soluble
SSSLTSENAETKVGVFWDVEECPVPDGVEPSVVCENIKLALEKKGYRPCNVSIRVYGERTNKFKDDFLLADIMFLPAGDEGARFMRMCNDFFCWGNDNRKSTLMVMSRDSTEFASSFVMYKNLNFNILVAQPENVDRKCPVCRKPLEMIITDEWVWESLSAGGDPLPKTQEEPDLSNSCH	soluble
SSVIDKPQVNESAFHRAEPEERESQPETTPQYSPQSVSTTVPERVYQAIDKTPTYPGRTDYEIKPRDRAPSDSSVREARIADSFKRTDWIESKLAPKPNVGKERHAEPAPSKREVHAYHELLKTPDFESQQAEQPTSIESVREVSLPQVTALGKALVVVDEQFVLMSSDSGVALVSLPRSEFYRTKGQLTPSEGALKAQPLLVPLSMKLDTDLVRLAQDYQQDFAQLGIQLKARNDKALMVMGVPAPLRQQNLQNLVPDLLSYAQTWMKGEKASTQMLPALIDWLAVQVTTVKSHYTLSEAIQIIAELEQLRHGQLPLDDKTFVSAVDFSATIAKLKP	not soluble
SSVSGLKAELKFLASIFDKNHERFRIVSWKLDELHCQFLVPQQGSPHSLPPPLTLHCNITESYPSSSPIWFVDSEDPNLTSVLERLEDTKNNNLLRQQLKWLICELCSLYNLPKHLDVEMLDQPLPTGQNGTTEEVTSEEEEEEEEMAEDIEDLDHYEMKEEEPISGKKSEDEGIEKENLAILEKIRKTQRQDHLNGAVSGSVQASDRLMKELRDIYRSQSYKTGIYSVELINDSLYDWHVKLQKVDPDSPLHSDLQILKEKEGIEYILLNFSFKDNFPFDPPFVRVVLPVLSGGYVLGGGALCMELLTKQGWSSAYSIESVIMQINATLVKGKARVQFGANKNQYNLARAQQSYNSIVQIHEKNGWYTPPKEDG	not soluble
STDYGEEQRNELEALESIYPDSFTVLSESPPSFTITVTSEAGENDETVQTTLKFTYSEKYPDETPLYEIFSQENLEDNDVSDILKLLALQAEENLGMVMIFTLVTAVQEKLNEIVDQIKTRREEEKKQKEKEAEEAEKKLFHGTPVTIENFLSWKAKFDAELLEIKKKRMKEEEQAGKNKLSGKQLFETDHNLDTSDIQFLEDAGNNVEVDESLFQEMDDLELEDGEDDPDYNPVAPGSDSSD	soluble
STEESMYTRIIKELPREGSSDVLVIKNEHVKKSDIWPSGGEMVVKDLTVKYMDDGNAVLENISFSISPGQRVGLLGRTGSGKSTLLSAFLRMLNIKGDIEIDGVSWNSVTLQEWRKAFGVITQKVFIFSGTFRQNLDPNGKHKDEEINKVADEVGLKSVIEQFPGQLNFTLVDGGYVLSHGHKQLMCLARSVLSKAKIILLDEPSAHLDPITYQVIRRVLKQAFAGCTVILCEHRIEAMLDCQRFLVIEESNVWQYDSLQALLSEKSIFQQAISSSEKMRFFQGRHSSKHKPRTQITALKEETEEEVQETRL	soluble
STFSKAAPSVPSKPSDCNFISNFYSHSRLHHISMWKCELTEFVNTLQRQSNGIFPGREKLKKMKTGRSALVVTDTGDMSVLNSPRHQSCIMHVDMDCFFVSVGIRNRPDLKGKPVAVTSNRGTGRAPLRPGANPQLEWQYYQNKILKGKAADIPDSSLWENPDSAQANGIDSVLSRAEIASCSYEARQLGIKNGMFFGHAKQLCPNLQAVPYDFHAYKEVAQTLYETLASYTHNIEAVSCDEALVDITEILAETKLTPDEFANAVRMEIKDQTKCAASVGIGSNILLARMATRKAKPDGQYHLKPEEVDDFIRGQLVTNLPGVGHSMESKLASLGIKTCGDLQYMTMAKLQKEFGPKTGQMLYRFCRGLDDRPVRTEKERKSVSAEINYGIRFTQPKEAEAFLLSLSEEIQRRLEATGMKGKRLTLKIMVRKPGAPVETAKFGGHGICDNIARTVTLDQATDNAKIIGKAMLNMFHTMKLNISDMRGVGIHVNQLVPTNLNPST	soluble
STKLTGYVWDGCAASGMKLSSVAIMARLADFSNDEGVCWPSIETIARQIGAGMSTVRTAIARLEAEGWLTRKARRQGDGSSPHCAVVDEYHEHATDALYTTMLTGMGARRQPLMWAITTAGYNIEGPCYDKRREVIEMLNGSVPNDELFGIIYTVDEGDDWTDPQVLEKANPNIGVSVYREFLLSQQQRAKNNARLANVFKTKHLNIWASARSAYFNLVSWQSCEDKSLTLEQFEGQPCILAFDLARKLDMNSMARLYTREIDGKTHYYSVAPRFWVPYDTVYSVEKNEDRRTAERFQKWVEMGVLTVTDGAEVDYRYILEEAKAANKISPVSESPIDPFGATGLSHDLADEDLNPVTIIQNYTNMSDPMKELEAAIESGRFHHDGNPIMTWCIGNVVGKTIPGNDDVVKPVKEQAENKIDGAVALIMAVGRAMLYEKEDTLSDHIESYGIRSL	soluble
STSPEIASLSWGQMKVKGSNTTYKDCKVWPGGSRTWDWRETGTEHSPGVQPADVKEVVEKGVQTLVIGRGMSEALKVPSSTVEYLKKHGIDVRVLQTEQAVKEYNALVAQGVRVGGVFHSTC	soluble
STTEVVMENVTAFWEEGFGELFEKAKQNNNNRKTSNGDDSLSFSNFSLLGTPVLKDINFKIERGQLLAVAGSTGAGKTSLLMMIMGELEPSEGKIKHSGRISFCSQNSWIMPGTIKENIIFGVSYDEYRYRSVIKACQLEEDISKFAEKDNIVLGEGGITLSGGQRARISLARAVYKDADLYLLDSPFGYLDVLTEKEIFESCVCKLMANKTRILVTSKMEHLKKADKILILHEGSSYFYGTFSELQNERPDFSSKLMGCDSFDQFSAERRNSILTETLHRFSLEGDAPVSENLYFQGDKDCEMKRTTLDSPLGKLELSGCEQGLHEIKLLGKGTSAADAVEVPAPAAVLGGPEPLMQATAWLNAYFHQPEAIEEFPVPALHHPVFQQESFTRQVLWKLLKVVKFGEVISYQQLAALAGNPAATAAVKTALSGNPVPILIPCHRVVSSSGAVGGYEGGLAVKEWLLAHEGHRLGKPGLG	soluble
SVCKGVSGNPAKGEVFLYKHVNFQGDSWKVTGNVYDFRSVSGLNDVVSSVKVGPNTKAFIFKDDRFNGNFIRLEESSQVTDLTTRNLNDAISSMIVATFESA	soluble

— the DeepSol protein solubility set
